{"source": "the supplement of paper PMC5998384", "key": {"HeLa Kyoto [1]": {"tested_on": "HeLa Kyoto", "assay": "solubility in G1/S (NP-40 vs SDS abundance) (log2 ratio); higher = more soluble", "settings": "cell cycle stage: G1/S"}, "HeLa Kyoto [2]": {"tested_on": "HeLa Kyoto", "assay": "solubility change mitosis vs G1/S (difference of NP-40 vs SDS log2 ratios) (log2 ratio difference); higher = more soluble in mitosis"}, "HeLa Kyoto [3]": {"tested_on": "HeLa Kyoto", "assay": "melting temperature (median over replicates), in situ; higher = more thermally stable"}, "HeLa Kyoto [4]": {"tested_on": "HeLa Kyoto", "assay": "thermal stability score vs G1/S (z-score of summed log2 fold changes over temperatures); higher = more thermally stable than in G1/S"}, "[5]": {"settings": "cell cycle stage: early G1 (4.5 h after nocodazole release)"}}, "data": [{"sequence": "MPSDLAKKKAAKKKEAAKARQRPRKGHEENGDVVTEPQVAEKNEANGRETTEVDLLTKELEDFEMKKAAARAVTGVLASHPNSTDVHIINLSLTFHGQELLSDTKLELNSGRRYGLIGLNGIGKSMLLSAIGKREVPIPEHIDIYHLTREMPPSDKTPLHCVMEVDTERAMLEKEAERLAHEDAECEKLMELYERLEELDADKAEMRASRILHGLGFTPAMQRKKLKDFSGGWRMRVALARALFIRPFMLLLDEPTNHLDLDACVWLEEELKTFKRILVLVSHSQDFLNGVCTNIIHMHNKKLKYYTGNYDQYVKTRLELEENQMKRFHWEQDQIAHMKNYIARFGHGSAKLARQAQSKEKTLQKMMASGLTERVVSDKTLSFYFPPCGKIPPPVIMVQNVSFKYTKDGPCIYNNLEFGIDLDTRVALVGPNGAGKSTLLKLLTGELLPTDGMIRKHSHVKIGRYHQHLQEQLDLDLSPLEYMMKCYPEIKEKEEMRKIIGRYGLTGKQQVSPIRNLSDGQKCRVCLAWLAWQNPHMLFLDEPTNHLDIETIDALADAINEFEGGMMLVSHDFRLIQQVAQEIWVCEKQTITKWPGDILAYKEHLKSKLVDEEPQLTKRTHNV [ABCF2]", "values": [{"measurement": "solubility in G1/S (log2)", "setting": "HeLa Kyoto [1]", "value": -0.296}, {"measurement": "solubility change mitosis (log2)", "setting": "HeLa Kyoto [2]", "value": 0.116}, {"measurement": "melting temperature", "setting": "HeLa Kyoto [3]; cell cycle stage: G1/S", "value": 51.8, "unit": "°C"}, {"measurement": "melting temperature", "setting": "HeLa Kyoto [3]; cell cycle stage: mitosis", "value": 51.2, "unit": "°C"}, {"measurement": "thermal stability score", "setting": "HeLa Kyoto [4]; [5]", "value": 1.11}, {"measurement": "thermal stability score", "setting": "HeLa Kyoto [4]; cell cycle stage: mitosis", "value": 0.19}]}, {"sequence": "MPSLLVLTFSPCVLLGWALLAGGTGGGGVGGGGGGAGIGGGRQEREALPPQKIEVLVLLPQDDSYLFSLTRVRPAIEYALRSVEGNGTGRRLLPPGTRFQVAYEDSDCGNRALFSLVDRVAAARGAKPDLILGPVCEYAAAPVARLASHWDLPMLSAGALAAGFQHKDSEYSHLTRVAPAYAKMGEMMLALFRHHHWSRAALVYSDDKLERNCYFTLEGVHEVFQEEGLHTSIYSFDETKDLDLEDIVRNIQASERVVIMCASSDTIRSIMLVAHRHGMTSGDYAFFNIELFNSSSYGDGSWKRGDKHDFEAKQAYSSLQTVTLLRTVKPEFEKFSMEVKSSVEKQGLNMEDYVNMFVEGFHDAILLYVLALHEVLRAGYSKKDGGKIIQQTWNRTFEGIAGQVSIDANGDRYGDFSVIAMTDVEAGTQEVIGDYFGKEGRFEMRPNVKYPWGPLKLRIDENRIVEHTNSSPCKSSGGLEESAVTGIVVGALLGAGLLMAFYFFRKKYRITIERRTQQEESNLGKHRELREDSIRSHFSVA [NPR3]", "values": [{"measurement": "solubility in G1/S (log2)", "setting": "HeLa Kyoto [1]", "value": 0.0598}, {"measurement": "solubility change mitosis (log2)", "setting": "HeLa Kyoto [2]", "value": -0.0686}, {"measurement": "melting temperature", "setting": "HeLa Kyoto [3]; cell cycle stage: G1/S", "value": 53.9, "unit": "°C"}, {"measurement": "melting temperature", "setting": "HeLa Kyoto [3]; cell cycle stage: mitosis", "value": 54.4, "unit": "°C"}, {"measurement": "thermal stability score", "setting": "HeLa Kyoto [4]; [5]", "value": -4.69}, {"measurement": "thermal stability score", "setting": "HeLa Kyoto [4]; cell cycle stage: mitosis", "value": -4.35}]}, {"sequence": "MPSRKFADGEVVRGRWPGSSLYYEVEILSHDSTSQLYTVKYKDGTELELKENDIKPLTSFRQRKGGSTSSSPSRRRGSRSRSRSRSPGRPPKSARRSASASHQADIKEARREVEVKLTPLILKPFGNSISRYNGEPEHIERNDAPHKNTQEKFSLSQESSYIATQYSLRPRREEVKLKEIDSKEEKYVAKELAVRTFEVTPIRAKDLEFGGVPGVFLIMFGLPVFLFLLLLMCKQKDPSLLNFPPPLPALYELWETRVFGVYLLWFLIQVLFYLLPIGKVVEGTPLIDGRRLKYRLNGFYAFILTSAVIGTSLFQGVEFHYVYSHFLQFALAATVFCVVLSVYLYMRSLKAPRNDLSPASSGNAVYDFFIGRELNPRIGTFDLKYFCELRPGLIGWVVINLVMLLAEMKIQDRAVPSLAMILVNSFQLLYVVDALWNEEALLTTMDIIHDGFGFMLAFGDLVWVPFIYSFQAFYLVSHPNEVSWPMASLIIVLKLCGYVIFRGANSQKNAFRKNPSDPKLAHLKTIHTSTGKNLLVSGWWGFVRHPNYLGDLIMALAWSLPCGFNHILPYFYIIYFTMLLVHREARDEYHCKKKYGVAWEKYCQRVPYRIFPYIY [LBR]", "values": [{"measurement": "solubility in G1/S (log2)", "setting": "HeLa Kyoto [1]", "value": -0.228}, {"measurement": "solubility change mitosis (log2)", "setting": "HeLa Kyoto [2]", "value": -0.0634}, {"measurement": "melting temperature", "setting": "HeLa Kyoto [3]; cell cycle stage: G1/S", "value": 53.1, "unit": "°C"}, {"measurement": "melting temperature", "setting": "HeLa Kyoto [3]; cell cycle stage: mitosis", "value": 52.5, "unit": "°C"}, {"measurement": "thermal stability score", "setting": "HeLa Kyoto [4]; [5]", "value": -0.47}, {"measurement": "thermal stability score", "setting": "HeLa Kyoto [4]; cell cycle stage: mitosis", "value": -1.19}]}, {"sequence": "MPTVEELYRNYGILADATEQVGQHKDAYQVILDGVKGGTKEKRLAAQFIPKFFKHFPELADSAINAQLDLCEDEDVSIRRQAIKELPQFATGENLPRVADILTQLLQTDDSAEFNLVNNALLSIFKMDAKGTLGGLFSQILQGEDIVRERAIKFLSTKLKTLPDEVLTKEVEELILTESKKVLEDVTGEEFVLFMKILSGLKSLQTVSGRQQLVELVAEQADLEQTFNPSDPDCVDRLLQCTRQAVPLFSKNVHSTRFVTYFCEQVLPNLGTLTTPVEGLDIQLEVLKLLAEMSSFCGDMEKLETNLRKLFDKLLEYMPLPPEEAENGENAGNEEPKLQFSYVECLLYSFHQLGRKLPDFLTAKLNAEKLKDFKIRLQYFARGLQVYIRQLRLALQGKTGEALKTEENKIKVVALKITNNINVLIKDLFHIPPSYKSTVTLSWKPVQKVEIGQKRASEDTTSGSPPKKSSAGPKRDARQIYNPPSGKYSSNLGNFNYEQRGAFRGSRGGRGWGTRGNRSRGRLY [API5]", "values": [{"measurement": "solubility in G1/S (log2)", "setting": "HeLa Kyoto [1]", "value": 0.323}, {"measurement": "solubility change mitosis (log2)", "setting": "HeLa Kyoto [2]", "value": 0.0442}, {"measurement": "melting temperature", "setting": "HeLa Kyoto [3]; cell cycle stage: G1/S", "value": 53.7, "unit": "°C"}, {"measurement": "melting temperature", "setting": "HeLa Kyoto [3]; cell cycle stage: mitosis", "value": 52.8, "unit": "°C"}, {"measurement": "thermal stability score", "setting": "HeLa Kyoto [4]; [5]", "value": 1.42}, {"measurement": "thermal stability score", "setting": "HeLa Kyoto [4]; cell cycle stage: mitosis", "value": 1.11}]}]}
